Patent publication US20160280799A1
Changes are numbered by the printed parent chain.

Tests used:
[1] = substrate: F protein of RSV (Long strain) (human respiratory syncytial virus, Long strain) (UniProt P12568); experiment: cell-based or functional assay
[2] = molecular target: hemagglutinin (HA) of A/Vietnam/1194/04 (H5N1) on MLV(HA) pseudotyped virions (influenza A virus A/Vietnam/1194/04 (H5N1))

F protein of RSV (Long strain) (human respiratory syncytial virus, Long strain), sequence (P12568 26-574): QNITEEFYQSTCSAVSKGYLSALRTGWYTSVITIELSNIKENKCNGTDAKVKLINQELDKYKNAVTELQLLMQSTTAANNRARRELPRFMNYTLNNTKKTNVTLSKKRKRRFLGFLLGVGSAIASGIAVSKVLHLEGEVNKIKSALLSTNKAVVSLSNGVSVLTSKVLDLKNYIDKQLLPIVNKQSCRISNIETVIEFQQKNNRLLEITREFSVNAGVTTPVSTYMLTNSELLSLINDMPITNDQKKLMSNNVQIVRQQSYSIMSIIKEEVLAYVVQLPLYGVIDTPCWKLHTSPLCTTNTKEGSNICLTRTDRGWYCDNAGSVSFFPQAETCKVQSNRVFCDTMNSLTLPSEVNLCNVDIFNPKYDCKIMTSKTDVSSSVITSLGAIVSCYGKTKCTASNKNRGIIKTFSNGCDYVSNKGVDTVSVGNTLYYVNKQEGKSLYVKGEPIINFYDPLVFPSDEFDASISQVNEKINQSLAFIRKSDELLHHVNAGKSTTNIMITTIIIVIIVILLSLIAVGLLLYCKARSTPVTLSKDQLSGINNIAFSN

B1: building block of RSV407 (monovalent) (VHH)
VHH: EVQLVESGGGLVQAGGSLSISCAASGGSLSNYVLGWFRQAPGKEREFVAAINWRGDITIGPPNVEGRFTISRDNAKNTGYLQMNSLAPDDTAVYYCGAGTPLNPGAYIYDWSYDYWGRGTQVTVSS
IC50, neutralization of RSV infection, Long strain [1]: 50 to 100 nM

B2: 203-B12 (VHH)
VHH: EVQLVESGGGLVQPGGSLRLSCAASGFTFSSYAMGWVRRAPGEGLEWVSSISSGGALPTYADSVKGRFTISRDNVKNTLYLQMNSLKPEDTAVYSCEKYAGSMWTSERDAWGQGTQVTVSS
IC50 (read off the curve) [2]: 10 nM

B3: 203-H9 (VHH)
VHH: EVQLVESGGGLVQPGGSLRLSCTGSGFTFSSYWMDWVRQTPGKDLEYVSGISPSGGNTDYADSVKGRFTISRDNAKNTLYLQMNSLQPEDTALYYCRRSLTLTDSPDLRSQGTQVTVSS
IC50 (read off the curve) [2]: 8 nM

B4: 202-C8 (VHH)
VHH: B3 VHH with G56S, Q87K
IC50 (read off the curve) [2]: 10 nM
